Tested on: genomic CAN1 gene
Assay: Fluctuation tests of the genomic CAN1 gene (POL3 mutator strains)
Format: cell-based, S. cerevisiae
Conditions: genomic mutation rate
Description: To construct POL3 mutator strains, plasmids were transformed into AH22 encoding wild-type POL3 on a URA3 plasmid or Δmsh6 AH22 encoding wild-type POL3 on a URA3 plasmid. Transformants were expanded in selective SC medium and spot plated on selective SC medium or selective SC medium supplemented with 5-FOA (1 g/L) for plasmid shuffle of the plasmid encoding wild-type POL3 via URA3 counter-selection (Boeke et al., 1984).
Fluctuation tests of the genomic CAN1 gene were performed to determine genomic per-base substitution rates. To minimize propagation of POL3 mutator strains, fluctuation tests were performed directly on colonies from plasmid shuffle plates. For each strain, 48 colonies from plasmid shuffle plates were individually scraped and resuspended in 120 μL 0.9% NaCl. 10 μL from each resuspension was diluted and subject to an event counts measurement via flow cytometry. This was done to identify colonies of similar cell count, because fluctuation tests are only appropriate when final population sizes for all replicates are similar. 24 resuspensions with similar event counts were used for fluctuation tests. […] Colonies were counted from titer plates after 2-4 days and from spot plates after 3-6 days. […]
Fluctuation data were analyzed as described above for URA3 fluctuation data, but with mutation frequency parameters for CAN1 (Lang et al., 2008). […]

B1: pol3-01: proofreading deficient pol3-01 allele encodes POL3 (D321A, E323A) (protein, UniProt P15436 1-1097, looked up, variant D321A E323A)
DNA polymerase delta …: MSEKRSLPMVDVKIDDEDTPQLEKKIKRQSIDHGVGSEPVSTIEIIPSDSFRKYNSQGFKAKDTDLMGTQLESTFEQELSQMEHDMADQEEHDLSSFERKKLPTDFDPSLYDISFQQIDAEQSVLNGIKDENTSTVVRFFGVTSEGHSVLCNVTGFKNYLYVPAPNSSDANDQEQINKFVHYLNETFDHAIDSIEVVSKQSIWGYSGDTKLPFWKIYVTYPHMVNKLRTAFERGHLSFNSWFSNGTTTYDNIAYTLRLMVDCGIVGMSWITLPKGKYSMIEPNNRVSSCQLEVSINYRNLIAHPAEGDWSHTAPLRIMSFAIACAGRIGVFPEPEYDPVIQIANVVSIAGAKKPFIRNVFTLNTCSPITGSMIFSHATEEEMLSNWRNFIIKVDPDVIIGYNTTNFDIPYLLNRAKALKVNDFPYFGRLKTVKQEIKESVFSSKAYGTRETKNVNIDGRLQLDLLQFIQREYKLRSYTLNAVSAHFLGEQKEDVHYSIISDLQNGDSETRRRLAVYCLKDAYLPLRLMEKLMALVNYTEMARVTGVPFSYLLARGQQIKVVSQLFRKCLEIDTVIPNMQSQASDDQYEGATVIEPIRGYYDVPIATLDFNSLYPSIMMAHNLCYTTLCNKATVERLNLKIDEDYVITPNGDYFVTTKRRRGILPIILDELISARKRAKKDLRDEKDPFKRDVLNGRQLALKISANSVYGFTGATVGKLPCLAISSSVTAYGRTMILKTKTAVQEKYCIKNGYKHDAVVVYGDTDSVMVKFGTTDLKEAMDLGTEAAKYVSTLFKHPINLEFEKAYFPYLLINKKRYAGLFWTNPDKFDKLDQKGLASVRRDSCSLVSIVMNKVLKKILIERNVDGALAFVRETINDILHNRVDISKLIISKTLAPNYTNPQPHAVLAERMKRREGVGPNVGDRVDYVIIGGNDKLYNRAEDPLFVLENNIQVDSRYYLTNQLQNPIISIVAPIIGDKQANGMFVVKSIKINTGSQKGGLMSFIKKVEACKSCKGPLRKGEGPLCSNCLARSGELYIKALYDVRDLEEKYSRLWTQCQRCAGNLHSEVLCSNKNCDIFYMRVKVKKELQEKVEQLSKW
With B1 the mutational increase was 58 fold.
